# In the DeepSol protein solubility set:
# Test: soluble on expression in E. coli; label from the status in PepcDB or PDB records
row,Sequence,soluble on expression in E. coli
1,MSITPHRLPVAPVIVREAYLSLLRKGWRPGDRDLKTPRNVKIETGIIEKAEGSALVKLGKTQVIAGVKAGVGAPFKDTPNQGVLTVHAEFVPLASPVFEPGPPDENAIELARVVDRSLREVGAVDLESLVIRPGEKVWVLWVDLYIIDHDGNLFDASMLATMAVLLTARLPRYEESETGEIIISKEGEGEELKVKTRVVTVTTAKIDRYIVVDPNIEEEAVSDVRLVTAVDENGRIVGLQKTGMGSLTEADIETMIGYSLEASKVYFKALEEAIKP,soluble
2,MIYEIGGHEVSIVRATPGLAKSYYDLLMELYEDPNSYILVNYSKDPPQLESIVERSKNWNVHPHYMHFALYKDKVVGFAGSLLGPDYGPEVQPHIAEIYYGVSKGWRKTGLIYALLYTALSDINAKIVKATAYVENLPSINVLLKIGLRIIAVLEENDFHYMSGKMHDDYLFRGFRSDCLNRLPGLLEKHGISVIR,not soluble
3,FDISVLSVAPLRQGETMKQGIDSAVSLAKAVDNMGYKRIWFAEHHNHDAYASAATVSIVQHILANTKDIRVGSGGIMLPNHSPLIVAEQFGTLETLYPNRVDLALGRAPGTDQKTADVIRRSNHNGVFFFEREVNDILRFVGDKSVQGEVRAYPGIGTHVPVFVLGSSTDSAEIAAKLGLPYAFGAQFSPHSMEEALSIYRENFQPSSYLQEPYVIACINVIAAESIDEASFISASHLQVYIDIYTNNLSKLIPPTENFLESLSQFELEILHSRLGYTIMGDRETIRRELIDFQQMYHADELIVLSNIYELSKEIQSYEILKQVVDELFKKRM,not soluble
4,MGHHHHHHSHMSRPGHGGLMPVNGLGFPPQNVARVVVWEWLNEHSRWRPYTATVCHHIENVLKEDARGSVVLGQVDAQLVPYIIDLQSMHQFRQDTGTMRPVRRNFYDPSSAPGKGIVWEWENDGGAWTAYDMDICITIQNAYEKQHPWLDLSSLGFCYLIYFNSMSQMNRQTRRRRRLRRRLDLAYPLTVGSIPKSQSWPVGASSGQPCSCQQCLLVNSTRAASNAILASQRRKAPPAPPL,not soluble
5,MGSDKIHHHHHHMSLLKITQGLFRLSDTRMLRLDELTLEQNQCWAFVGANGSGKSALARALSGELPLLSGERTTGFQHPVRLSFEQLQKLVSDEWQRNNTDLLSEGEDDTGRTTAEVIQDSLNDPTRCQQLACQFGIAHLLERRFKYLSTGETRKAMLCQALMPQPDLLILDEPFDGLDVTSRQQLADELRKLVDTGYTLVLILNRFDDIPDFINHIGVLADCTLTRIGEREAILSEALVAQLAFSEKLSGSSLPEPEDPQRHVTLPADEAHILLRNGVVQYNDRPILHELTWEVFPGQHWQIIGPNGAGKSTLLSLITGDHPQGYSNDLTLFGRKRGSGETIWDIKRHIGYVSSSLHLDYRVSTSVRNVILSGFFDSIGIYQAVSDRQRHLTEQWLILLGLSGAIADTPFQSLSWGQQRLTLIARALVKHPALLILDEPLQGLDPLNRQLVRRWLDILIGEGETQLLFVSHHAEDAPECITHRLTFVPHNDIYRYQIDELCK,not soluble
6,MSLNNQANKLRNLMSQNGTKKSQNTHFIAITSGKGGVGKSTISANLANVLANNGYKVGLFDADIGLANLDVILNVRIQKNLLHVLRGECSLEDILIEVKPNLWLIPGESGDEILKYNDKNIYERFLNQASILDELDFLIIDTGAGIGGNILNFLEMADEVIVVTVPDPAAITDAYATIKTTSKTKENLLMLFNVVKNENEALKVFENIKKVADANIKNPLNLEFLGHLSASKDVSGSIKKRTLFSDENTASSDEIKALASKLLYRLERKVLDNVSNRSFSSFFRKIIEREGHHHHHH,soluble
7,MSRSQVTGKEFVLRCVFNDVSNMNDNDMRFGTVEEYFNVPWIFQIQRNNGNLGIYLRCTNLKDQEMWSIFSELELKLVSVYSDTRDQKCKIDMCFGHDSGKFYSSYGWSEFISWNELETSFMEAGSITVEARVLINKSIGFYTPKLMDFDEKMMEYSDIVVLVNGQRFYLLKKFLAFHSTFFESLFLGGFYEAKLAEVPLYDIDVDDFQKFLEVLYGFPVINVIVPINKLTLQQSEMLNACAQYAQTGSQKLTREANYVITEVRLF,not soluble
8,ERTRAEQKLAETNVFLNSVVDGVAEPMVVVGLDRRVIMTNRAARDFFQISDVGSDEACHRLIHHRDTPCVREEGMQCPLLDVRTAKRPVIATQEHRDRSGDKRVVEVMTSPLLGSDGVAIGIIEAFRDIT,not soluble
9,MADSKAKPAKAANKTPPKSPGDPARAAKRLSLESEGANEGATAAPELSALEEAFRRFAVHGDTRATGKEMHGKNWSKLCKDCHVIDGKNVTVTDVDIVFSKIKGKSCRTITFEQFQEALEELAKKRFKDKSSEEAVREVHRLIEGRAPVISGVTKAVSSPTVSRLTDTSKFTGSHKERFDQSGKGKGKAGRVDLVDESGYVPGYKHAGTYDQKVQGGK,soluble
10,MGSDKIHHHHHHMLHATAWRSALFTPTENSATSRDRADCGGIGGMSAAILLSRQGIQVDLVELNPLWAPGGAGITISGPTLRGLREVGVADEVLASGGFWNAVDVCDANSNLTVTVPIAPAVGADELPGVAGIMRTTLAEILGRATRKADTNARLGVTFETLTQDAEGVEVSFNDGSRARYDLVIGADGINSPVRKYVKPEFPGPPFTGQRSWRAVVPRLQENSLMYMGKTTKAGLNPISQTECYLFVLDKREGMDFIAPEQWPMMLAELLEEFGGAVGEFRRGPLDGSLMNHRLLYRPLAGHMINGPWHKGRIVLLGDAVHATTPHLASRAGIAVEGAIVLSEELARRRSLEGAFIAYAGRHYDRARLVVSASGRLGEIERESGSREEHTRIMIETQQALRAPI,not soluble
11,MKRIADEELVREERAEESTQKWLQDAKFQEILGADSSHKSLFVLLSHPDGSQGILLANKSPFSEEKSDIEKLLATAQLQEISRNDIFGSYNIEIDPKLNLLKSQLIYPINDRLIAKYRQEEKFVIRETPELYETVTRPYIEKYQLNLNWVYNCLEKRSEVDKIVFEDPDNENGFVLLQDIKWDGKTLENLYVLAICHRHGLKSVRDLTGDDLEMLYNMRDKSLEAINQKYGLKTDQIKCYFHYQPSFYHLHVHFINLKYDAPASTTMSAILLDDVINNLELNPEHYKKSTLTFTRKNGDKLMEMFREALKN,not soluble
12,MSLSRYPQLIQEQILKCKESWDSNSYKTSLRSFVYNKVNETDAILYTKPTNVSQEEWDKAIENKPSSDLIPIQVFGFEGLNNRNQIQVENVAQARVILNQILDKTKQLQQSHSFETSARIMKVQARNAQIEKRILKLGTQLAILKNRRLPLTISEEKMWGQFQELLKSSNDPAGLGKTNELWARLAVLRERAKTISEQLDSKLVIIGENGGQTGKPSASGDNNRVSDEVYDRIDKIAEILKNQQSGIAYLNDVLEKDNKALDSVVELKEGHHHHHH,soluble
13,MGSDKIHHHHHHMILSEVRIHNFRNIASTSLILNPNFNCITGPNGGGKTSLLEALYMLSCAHSFRSREITPIISYGQNQLNVFAHAYDESTISVQKSITDGTQIKLNNQFCCTTSQLAYALPCQVIYSDIFQIIDAGPSVRRSLLDWGLFHVKHDYLKIWKDYKRILSQRNALLKSRATYDHFIPWDQQLSQLANQLDKARNDYFLQWQPKFYQVLSDLTNISCTVEYYKGWDRKNAGQNMEELLQKSFDSDRKKLYTQYGPHQADLIISTEQYRVKHTLSRGQQKIILIALKLAQGQLLDKDCLYLIDDLAAELDDYHQRNLIKYLTQQKGQFVITNLINNNNYDILPIDSGLFEVNCGAIKNL,not soluble
14,MAKVTGTKVITNQVRLSFVHVLEPHAMEEGQEKKYSCMLIIPKDDKETLKAMKEAIKTAYEGAKGDKLKGVKFERLKTTLRDGDEEMDTEERPEFENAMFINVSSKTKPQVVKREDGVLVKTDDPDEVYSGVYAIASINFYAYSTAGNKGVTAGLNNILTLCKGDFLGGRANAESDFGDLEWEDEEDDMFS,not soluble
15,MICARIRPLISSPLAFTISTTKHSRINLRLLPRRSFSVMSSSTPQSQIIEHIVLFKTKDDADSTKITSMINNLNALAYLDQVLHISTSPLHRISSATAFTHVLHSRYESKEDLASYAAHPDHVRVVKESVLPICDDIMAVDWIADRIPGTVAPLPGSVAKLTLLKLKEDVADEAKSEITGVIKGLSEKFPGIDQITVGENFSPARAKGFSIASIAYFKDLSEMEAVDAQKELVNSQKDKVRDYVDSTIVVEFVVPSSSQSSSL,soluble
16,MGHHHHHHSHMNVVKASPQSALLLYISELIQEKNPMNAMNVVKPSARKYASYNMRDVIQERLPLYVPSAENPIHTNMASLPIREFTQERNLMSAMNVERPSPQSQYSMYIKERIQERGRMDAVIVRKPSPTYQTLSNIRKCTQEKWVESVKLKTPVMESHSSFLISELMQKKTLLVP,not soluble
17,MAHHHHHHMAKHSTFKNLVKLHGDMKKEELLVLFFHSCILDNNFIYKLNDEQKYEKSESHEKIKISNGYIKHMTDVGSGKFFLSRILIDPEWRSNSSSYNFLYQSVDTNDTYNLNLVKIENSLVVQIINTAQPSVVHSVTIDVGEYVNECTAEEGKTDNIEDRVMMEKLEGVFQTHILSHMKKGSSNNILGDNSSSKGKGPKGLIIESNANEHFRNVFQTNPDPYLLPNFNANHFDDKNPNIGRSLIPDLRNNVPILKPDGLLVGPDNKFFNPKNLRYDPIGPFGNEPNADNKPFEFQDNFPF,not soluble
18,MGHHHHHHSHMSHTQQQTASSTETSTVTVPPSREQNLVLHLSPNPAQPSTSERRHVVWATETVDNEGMGKKKSKCCCIYKKPKNWQDSSSDSDSDCETGHCRGHVEHKKNEEPKSSN,soluble
19,MGSDKIHHHHHHMLIFQYDFKIEFYNTVNSKNSIGGRLSGLRPRVVITTQNGAPDLNIFIQNTYSENNLITSKKAKLQIFNVPLDFSDFKTADIVKIYYKKFSDQQDYQFIMAGYLGAPVERIGGAENFSFECELYLLSRATFLERKFEYKNFKGSTIADAINYAFKDKAIFFMNELEKTKVIKESFACNSPKGLIEYLRRQGYVDAVIVDIGNPGQDVDLKFIFMNFEQFGAAEYKRLEDYGLLFVPQKDALGFKSGLSLYQAQVMFTHNIKIADNLSFKDRHGNTLDCKVKNTSARLSSTRECVLNLELYSKGEMYYAK,not soluble
20,MANSAGSMTIFVISDSAGETASKLAAASMAQYPTVDFTLIRRTFVKDEDKLVQALEDAKKAEAMVLHTIINDHLVAIANQFFNEHQLFHFDILTPPVAEIERLTGVAPMREPGALHHLNENYFKRIEAMEFAVKYDDGKDPRGFLEADVLLLGVSRTSKTPLSLFLANKNLKVANLPLIPEAHLPKQLFEMDPKKIVGLTNDPNVLNGIRKERMRAYGLPENTSYSDIEKIRRELAFANDLYQKLGCIVIDVASLSIEETASMILNALNLEDHSYYSTETSEDLEHHHHHH,not soluble
21,MNLHEYQAKQLFARYGLPAPVGYACTTPREAEEAASKIGAGPWVVKCQVHAGGRGKAGGVKVVNSKEDIRAFAENWLGKRLVTYQTDANGQPVNQILVEAATDIAKELYLGAVVDRSSRRVVFMASTEGGVEIEKVAEETPHLIHKVALDPLTGPMPYQGRELAFKLGLEGKLVQQFTKIFMGLATIFLERDLALIAINPLVITKQGDLICLDGKLGADGNALFRQPDLREMRDQSQEDPREAQAAQWELNYVALDGNIGCMVNGAGLAMGTMDIVKLHGGEPANFLDVGGGATKERVTEAFKIILSDDKVKAVLVNIFGGIVRCDLIADGIIGAVAEVGVNVPVVVRLEGNNAELGAKKLADSGLNIIAAKGLTDAAQQVVAAVEGK,soluble
22,MSKRNTQQRRHNIIADLNAQGEVSVDSLAKQFDTSEVTIRKDLAALETSGLLLRRYGGAVALPSEITEAKVDQLSQQKLHIAKKAAMLIRDHNRIIIDSGQTTSALVSELANKKGLVVMTNALSIANEIHALENEPTLLMTGGTWDATSEAFQGQVAEQVLRSYDFDQLFIGADGIDIKRGTTTFNELIGLSRVMAEVAREVIVMVESAKITKKIPNLELNWQQIHTVITDDGLSEEMRIALTEQGVKLIIAKG,not soluble
